Here are results for one molecule from patent US20230416410A1 (ZOETIS SERVICES, published 2023).

The target of the test is T1, CTLA4 Fc bIgG3aSAS (canine; bovine, UniProt Q9XSI1 36-161, limits assumed).
T1 construct: No linker
T1 sequence: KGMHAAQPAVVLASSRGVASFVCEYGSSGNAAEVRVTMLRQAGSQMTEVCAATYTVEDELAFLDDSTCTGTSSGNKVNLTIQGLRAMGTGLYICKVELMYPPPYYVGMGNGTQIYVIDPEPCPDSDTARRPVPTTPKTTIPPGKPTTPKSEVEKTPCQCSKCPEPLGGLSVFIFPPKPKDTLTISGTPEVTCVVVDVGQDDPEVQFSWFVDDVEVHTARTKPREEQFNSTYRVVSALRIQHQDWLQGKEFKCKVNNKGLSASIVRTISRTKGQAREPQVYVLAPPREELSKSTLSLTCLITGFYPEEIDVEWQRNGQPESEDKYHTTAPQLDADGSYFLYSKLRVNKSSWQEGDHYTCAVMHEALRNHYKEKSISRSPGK
Description: SPR Biacore, biotinylated receptor on SA sensor, pH 7.4, 15 C.

B1: recombinant bovine FcgR2 (receptor)
chain: KPDLPKAVVTIQPAWINVLREDHVTLTCQGTSFSAGNLTTWFHNGSSIHTQKQPSYSFRAGSNDSGSYRCQREQTSLSDPVHLDVISDWLLLQTPSLVFQEGEPIMLRCHSWRNQPLNKITFYQDRKSKIFSYQRTNFSIPRANLSHSGQYHCTAFIGKMLHSSQPVNITVQESSSSGPSSMTHHHHHHAGLNDIFEAQKIEWHE
modifications: biotin on the BAP tag (BirA)
notes: also called bFcgR2; bFcgRII
With B1, the binding result was “no binding”.
